Tested on: MDA-MB-231 cells
Assay: pRNA nanoparticle cellular uptake assay (confocal, flow cytometry), MDA-MB-231
Format: cell-based, human
Details: MDA-MB-231 (HER2-negative), AF647-conjugated, 10 μg/mL, confocal microscopy
From the text: FIG. 8A) HER2 expression in BT474 and MDA-MB-231 cells determined by western blot analyses. FIG. 8B) The binding of AF-647-labeled pRNA-HER2apt-siMED1 and its mutant nanoparticles to MDA-MB-231 and BT474 cells examined by confocal microscopy. Green represents the immunofluorescent staining of HER2, and blue represents nuclear staining with DAPI. FIG. 8C) The internalization of AF647-labeled pRNA nanoparticles by MDA-MB-231 cells examined by confocal microscopy. Green represents the immunofluorescent staining of β-actin. Scale bar: 10 μm. FIG. 8D) The cellular uptake of AF647-labeled pRNA nanoparticles by MDA-MB-231 cells quantified by flow cytometry. FIG. 8E) HER2 expression in BT474 xenograft tumors was examined by western blot analyses. FIG. 8F) MDA-MB-231 cells were incubated directly with (as indicated by-) or transfected with pRNAs using lipofectamine 2000. At 48 h post treatment, MED1 protein levels were determined by western blots.
Cell culture. […] The hydrodynamic diameter and Tm value of pRNA nanoparticles were determined using dynamic light scattering and TGGE assay, respectively, as previously described.^54 The AFM imaging of the pRNA nanoparticles was performed at the University of Nebraska Medical Center imaging facility as previously reported.^55 Briefly, the pRNA nanoparticles (5 μL) were deposited on APS modified mica ^56 for a total of 2 min of incubation time. […]

B1: pRNA-HER2apt-siMED1: 3-WJ pRNA nanoparticle bearing a HER2-targeting RNA aptamer and two different MED1 siRNAs; strands p1 SEQ ID NO: 3, p2 SEQ ID NO: 4 (nucleic acid)
chain 1: GGACAGUGAAAGUGAGUCAAAGGAUCAAUCAUGGCCAAAGAUGUUACUUUGAGAGCCUU
chain 2: GGCUCUCAAAGUAACAUCUAAGGCCAUGUGUAUGUGGGGGGAGGACGAUGCGGUCUGCUGUGCUUGAUAUGCCCCAGACGACUCGCCCCCCACAUACUUUGUUGAUCCAAUGACUCACUUUCACUGUCCUU
modifications: 2'-F modification; third strand may lack entry; pRNA-HER2apt-siMED1, p1; pRNA-HER2apt-siMED1, p2
binding and internalization into cells: not

— patent US11110182B2, “Multifunctional RNA nanoparticles and methods for treating cancer and therapeutic resistant cancer” (University of Cincinnati, priority 2016, dated 2021)
